According to patent US5625031A, “Peptide inhibitors of the p33^cdk2 and p34^cdc2 cell cycle regulatory kinases and human papillomavirus E7 oncoprotein” (Bristol-Myers Squibb Company, priority 1994, dated 1997):
Entries after “also recorded” stand apart in the source; their conditions may differ.

What was measured:
HPV18-E7 protein = target: T1, HPV18-E7 protein (Human papillomavirus type 18, UniProt P06788); experiment: biochemical; assay type: binding; settings: E7 type and method not stated
T1 construct: made in house
Procedure: The association of bacterially expressed HPV18-E7 protein with the p107 30mer peptide was analyzed using an ELISA assay. In the experiment depicted in FIG. 3A, a 96-well cluster plate was coated with p107 30mer peptide and incubated with increasing concentration of a MBP-E7 fusion protein or the MBP protein as a control. […] In the experiment depicted in FIG. 3B, MBP-E7 fusion protein (100 ng) was incubated with a p107 30mer peptide-coated plate in the presence of increasing concentrations of free p107 9mer peptide.

E7-Rb complex = target: T2, E7-Rb complex (Human papillomavirus type 18, UniProt P06788); experiment: ELISA assay of competition for E7-Rb complex formation; assay type: binding; settings: MBP-E7 coated plate, 100 ng Rb, increasing peptide concentrations
T2 construct: made in house; host or cells: bacteria (MBP-E7); baculovirus system (Rb)
Procedure: To examine the effect of p107 peptide binding upon the E7-Rb interaction, an ELISA assay was used to monitor E7-Rb complex formation. 96-well cluster plates were coated with either MBP-E7 protein (O) or MBP alone as a control (.circle-solid.). The plates were incubated with increasing concentrations of baculovirus expressed Rb which was detected with monoclonal antibody αRb349 (Pharmingen, San Diego Calif.) (FIG. 4A). In a separate experiment, 96-well cluster plates were coated with MBP-E7 protein and incubated with 100 ng Rb in the presence of increasing concentrations of p107 9mer peptide (FIG. 4B). Binding is quantitated as an increase in optical density at 405 nm. […] A corresponding peptide from Rb protein (sequence MCSMYGICK [SEQ ID NO: 2]) also binds to the E7 oncoprotein and competes for the E7-Rb interaction.

T2 sequence (P06788 whole entry, one chain of several): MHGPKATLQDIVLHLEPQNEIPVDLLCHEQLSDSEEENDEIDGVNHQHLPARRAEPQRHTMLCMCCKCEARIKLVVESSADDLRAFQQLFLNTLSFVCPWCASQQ
T1 sequence (P06788 whole entry): as the sequence (P06788 whole entry, one chain of several) above

MCSMYGICK [nine amino acid peptide derived from Rb]
binding to the E7 oncoprotein (HPV18-E7 protein): binds
competition for E7 association with Rb (E7-Rb complex): competes; also recorded: inhibits E7 binding to Rb
